First the molecules themselves.
T1: RBM45 RRM3 (Homo sapiens, UniProt Q8IUH3 370-476)
T1 sequence: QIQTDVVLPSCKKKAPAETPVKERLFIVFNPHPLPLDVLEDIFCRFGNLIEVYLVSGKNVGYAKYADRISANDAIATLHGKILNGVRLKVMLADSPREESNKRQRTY

B1: GGACGG RNA (ssRNA)
RNA: GGACGG
B2: CGACGG (ssRNA)
RNA: CGACGG
B3: GUACGG (ssRNA)
RNA: GUACGG
B4: GGACGA (ssRNA)
RNA: GGACGA
B5: GGAGGG (ssRNA)
RNA: GGAGGG
B6: AGACGG (ssRNA)
RNA: AGACGG
B7: GGACUG (ssRNA)
RNA: GGACUG
B8: GGACGG ssDNA (ssDNA)
DNA: GGACGG
B9: GGACGC (ssRNA)
RNA: GGACGC
B10: GGAAGG (ssRNA)
RNA: GGAAGG
B11: GCACGG (ssRNA)
RNA: GCACGG
B12: GGGCGG (ssRNA)
RNA: GGGCGG
B13: GGACAG (ssRNA)
RNA: GGACAG
B14: GG(m6A)CGG RNA (ssRNA)
RNA: GGACGG
modifications: m6A at position 3
B15: GGAUGG (ssRNA)
RNA: GGAUGG
B16: UGACGG (ssRNA)
RNA: UGACGG
B17: GGACGU (ssRNA)
RNA: GGACGU
B18: polyU 6-mer RNA (ssRNA)
RNA: UUUUUU
B19: GAACGG (ssRNA)
RNA: GAACGG
B20: GGCCGG (ssRNA)
RNA: GGCCGG
B21: GGUCGG (ssRNA)
RNA: GGUCGG
B22: GGACCG (ssRNA)
RNA: GGACCG
B23: GACGCAG ssDNA (ssDNA)
DNA: GACGCAG

The values below come from publication PMC11402289, “Structural basis for RNA recognition by the C-terminal RRM domain of human RBM45”.

The first data set has as its target T1, RBM45 RRM3. The data set can be described thus: fluorescence polarization; FP: 100 nM FAM-RNA/ssDNA, 10 mM Tris-HCl pH 7.5, 200 mM NaCl, 1 mM DTT, 1 mM EDTA, 5% glycerol, 25 °C, 30 min. To be noted: protein: recombinant; tags: C-terminal His-tag; label: 5'-FAM.
As usually defined, the Kd is the concentration at which binding is half-saturated. With B1, the Kd stood at 2.34 ± 0.38 µM.
The same measure, in the same setting: in the case of B2 it was 1.99 ± 0.35 µM; in that of B3, 9.31 ± 1.93 µM; in that of B4, 1.16 ± 0.27 µM.
B5: the Kd is 61.5 ± 45.7 µM.
Same read-out and setting: in the case of B6 it was 3.11 ± 0.48 µM; in that of B7, 15.3 ± 2.1 µM.
The same measure, in the same setting: in the case of B8 it was 8.77 ± 0.61 µM; in that of B9, 1.08 ± 0.21 µM.
Same read-out and setting: as for B10, the figure is 91.6 ± 17.6 µM; as for B11, 8.88 ± 2.32 µM; as for B12, 59.3 ± 21.2 µM.
B13: the Kd worked out at 28.1 ± 6.62 µM.
The same measure, in the same setting: in the case of B14 it was 4.62 ± 0.55 µM.
Regarding B15, the Kd was found to be 63.6 ± 12.1 µM.
Same read-out and setting: in the case of B16 it was 2.13 ± 0.37 µM; in that of B17, 1.21 ± 0.26 µM; in that of B18, 199 ± 114 µM.
On the same count and under the same terms, as for B19, the figure is 10.2 ± 1.97 µM; as for B20, 71 ± 16.1 µM.
For B21, the Kd was 71.6 ± 16.9 µM.

In another data set the target is T1, RBM45 RRM3. The data set can be described thus: fluorescence polarization; also printed as 33.6; FP: 100 nM FAM-RNA/ssDNA, 10 mM Tris-HCl pH 7.5, 200 mM NaCl, 1 mM DTT, 1 mM EDTA, 5% glycerol, 25 °C, 30 min. To be noted: protein: recombinant; tags: C-terminal His-tag; label: 5'-FAM.
As for B22, the Kd worked out at 32.6 ± 6.22 µM.

The target in the next data set is T1, RBM45 RRM3. The data set can be described thus: fluorescence polarization; m6A comparison experiment; FP: 100 nM FAM-RNA/ssDNA, 10 mM Tris-HCl pH 7.5, 200 mM NaCl, 1 mM DTT, 1 mM EDTA, 5% glycerol, 25 °C, 30 min. To be noted: protein: recombinant; tags: C-terminal His-tag; label: 5'-FAM. Background: Polarisation of emitted light reports the rotation of a fluorescent probe.
As to B1, the Kd was 3.17 ± 0.3 µM.

Another data set has as its target T1, RBM45 RRM3. The data set can be described thus: X-ray crystallography; 1.65 A; 0.1 M sodium succinate pH 5.3, 8% PEG 2000; FP: 100 nM FAM-RNA/ssDNA, 10 mM Tris-HCl pH 7.5, 200 mM NaCl, 1 mM DTT, 1 mM EDTA, 5% glycerol, 25 °C, 30 min. To be noted: protein: recombinant; tags: C-terminal His-tag.
B23: the binding result is recorded as “binds”.
